Columns and labels:
[1] = biological target: T1, GP73 (endogenous human GP73 on HEK 293, HuH7, JHH4 and DU145 cells and in human tissue sections); assay: flow cytometry, surface staining of HEK 293 cells, axis anti-mouse APC
T1 construct: One entry for all cell lines and tissues; also called GOLM1; GOLPH2
T1 antigen: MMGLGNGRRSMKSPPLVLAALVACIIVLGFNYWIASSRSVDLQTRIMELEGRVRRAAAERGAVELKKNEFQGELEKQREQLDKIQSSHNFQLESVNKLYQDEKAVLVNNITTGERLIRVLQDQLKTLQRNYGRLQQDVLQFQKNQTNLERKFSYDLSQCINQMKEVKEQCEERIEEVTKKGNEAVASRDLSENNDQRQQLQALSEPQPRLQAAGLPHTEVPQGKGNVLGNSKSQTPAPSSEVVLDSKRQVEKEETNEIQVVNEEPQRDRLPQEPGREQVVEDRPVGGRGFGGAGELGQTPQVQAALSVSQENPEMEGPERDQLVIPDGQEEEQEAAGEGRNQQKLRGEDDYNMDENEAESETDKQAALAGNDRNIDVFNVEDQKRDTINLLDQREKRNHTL
Protocol: Detection of surface staining of cells is depicted as continuous line, only secondary antibody control detection is depicted as dashed line as described in Example 4.
Different human and murine cell lines e.g. HuH7, JHH4, HEK293, HEK293-GP73-myc and Ramos were tested by Flow cytometry analysis for expression of GP73 on their cell surface and binding of G2-2, G2-1 and G2-4. […]

[2] = biological target: T2, peptide AA 36-55 of GP73 (rGP73), SSRSVDLQTRIMELEGRVRR (human, biotinylated in the ELISAs (position not given)); assay: SPR (Biacore), fit for 1:1 binding, mean of measurements 1 + 2, GP73 peptide
T2 construct: also called GP73 peptide; peptide rGP73 (GP73 AA 36 to 55)
T2 peptide: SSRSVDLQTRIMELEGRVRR

[3] = biological target: T3, sGP73-10×His, encompassing GP73 AA56 to 401 (human, UniProt Q8NBJ4 56-401); assay: ELISA on coated sGP73-His, anti mouse HRP secondary
T3 construct: also called sGP73-His; sGP73-HIS
T3 sequence: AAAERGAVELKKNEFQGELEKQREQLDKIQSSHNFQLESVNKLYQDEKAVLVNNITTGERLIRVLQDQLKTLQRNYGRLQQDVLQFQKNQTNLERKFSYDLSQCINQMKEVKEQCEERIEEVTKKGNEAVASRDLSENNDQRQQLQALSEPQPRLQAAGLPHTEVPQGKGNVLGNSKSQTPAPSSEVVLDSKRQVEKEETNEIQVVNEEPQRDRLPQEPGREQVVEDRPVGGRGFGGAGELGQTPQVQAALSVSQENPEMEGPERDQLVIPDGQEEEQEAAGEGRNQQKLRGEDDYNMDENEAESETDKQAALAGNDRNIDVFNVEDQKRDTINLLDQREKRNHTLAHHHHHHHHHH
Protocol: (§1) ELISA was carried out in 96 well plates coated overnight with sGP73 or GP73 AVRR and blocked with 2% gelatine. Antibodies 8A10, G2-2opti (IgG2a) or isotype control antibody were applied, incubated for 1.5 hours and washed away. A secondary Horse radish peroxidase labeled anti mouse antibody was added for 1 hour and after extensive washing a chromogenic substrate (TMB Amersham) was applied to detect peroxidase.

[4] = biological target: T4, GP73-10×His AVRR, encompassing GP73 AA36 to 401 with a R52A mutation (human, UniProt Q8NBJ4 36-401); assay: ELISA on coated GP73-His AVRR, anti mouse HRP secondary
T4 construct: also called GP73 AVRR; GP73-His AVRR
T4 sequence: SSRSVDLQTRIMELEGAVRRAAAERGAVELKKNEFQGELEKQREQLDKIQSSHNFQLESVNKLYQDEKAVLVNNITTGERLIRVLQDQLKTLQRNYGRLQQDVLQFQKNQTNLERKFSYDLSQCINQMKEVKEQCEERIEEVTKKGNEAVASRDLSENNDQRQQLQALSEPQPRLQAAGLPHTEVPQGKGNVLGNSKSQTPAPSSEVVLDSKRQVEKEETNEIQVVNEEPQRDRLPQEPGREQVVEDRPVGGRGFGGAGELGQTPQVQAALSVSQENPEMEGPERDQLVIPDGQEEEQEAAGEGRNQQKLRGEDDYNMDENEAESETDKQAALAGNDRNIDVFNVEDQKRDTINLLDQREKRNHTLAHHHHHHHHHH
Protocol: as §1

[5] = biological target: T2, peptide AA 36-55 of GP73 (rGP73), …; assay: peptide ELISA on coated biotinylated rGP73 AA36-55, anti mouse HRP secondary
Protocol: ELISA was carried out in 96 well plates coated overnight with the biotinylated peptide gp73 AA 36-55 or an unrelated peptide and blocked with 2% gelatine. Antibodies 8A10, G2-2opti (IgG2a) or isotype control antibody (IgG2a) were applied, incubated for 1.5 hours and then washed away. A secondary horse radish peroxidase labeled anti mouse antibody was added for 1 hour and after extensive washing a chromogenic substrate (TMB Amersham) was applied to detect peroxidase.

[6] = biological target: T1, GP73 (endogenous human GP73 on HEK 293, …); assay: immunohistochemistry, paraffin section of hepatitis liver, anti-mouse secondary
Excerpt: FIG. 5 Immunohistochemical staining of tissues with the anti-rGOLPH antibody G2-2 and controls. Paraffin embedded tissues of A normal liver B hepatitis liver C and D hepatocellular carcinoma (HCC) were stained with murine G2-2 (mG2-2) (A,B,C) or anti-GP73 antibody M06A (Sigma) followed by secondary staining with an anti-mouse antibody and examined under a microscope by 40× magnification as described in Example 3.
Paraffin embedded tissues of normal liver, hepatitis liver, hepatocellular carcinoma (HCC), endometrium carcinoma, ovarian carcinoma, melanoma, small cell lung cancer and gastric cancer were stained with murine G2-2 (mG2-2) or mouse anti GOLPH (M06A Sigma) followed by secondary staining with an anti-mouse IgG. Nuclei were stained with hematoxylin (blue), cytoplasma was stained with hemalum-eosin.

[7] = biological target: T5, human GP73 (GOLM1, GOLPH2) in Alexander (PLC/PRF/5) cells (human, UniProt Q8NBJ4 1-401); assay: immunofluorescence on fixed, saponin treated Alexander cells
T5 construct: Endogenous protein of the cell line; cells were fixed with paraformaldehyde and treated with saponin
T5 sequence: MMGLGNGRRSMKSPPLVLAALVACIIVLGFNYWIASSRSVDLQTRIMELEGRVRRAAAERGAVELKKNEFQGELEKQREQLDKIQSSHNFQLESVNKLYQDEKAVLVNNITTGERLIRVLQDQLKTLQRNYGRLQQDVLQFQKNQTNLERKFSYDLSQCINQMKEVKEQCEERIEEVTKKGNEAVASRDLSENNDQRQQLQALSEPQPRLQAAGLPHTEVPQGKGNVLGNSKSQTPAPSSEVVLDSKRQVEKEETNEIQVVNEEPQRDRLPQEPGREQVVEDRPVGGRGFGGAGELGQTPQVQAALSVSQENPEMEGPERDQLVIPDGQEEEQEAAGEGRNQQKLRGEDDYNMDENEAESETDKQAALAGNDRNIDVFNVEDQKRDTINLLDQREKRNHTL
Protocol: Alexander cells were grown on 4 chamber slides, fixed with 4% paraformaldehyde, treated with 0.2% Saponin and blocked with 10% bovine serum albumin. Cells were incubated for one hour with goat anti-GP73 (santa cruz sc-48010) and mG2-2 and washed. Bound antibodies were stained with anti goat Alexa Fluor 488 (abeam ab150129) and anti mouse Alexa Fluor 647 (abeam ab150115). Nuclei were treated with DAPI.

[8] = biological target: T1, GP73 (endogenous human GP73 on HEK 293, …); assay: flow cytometry of antibody left on the surface of HuH7 cells (panel title) after loading at 4°C; detection with APC anti-human Fab
Protocol: Cells were incubated with 10 ug/ml of G2-2 or G2-1 for one hour at 4° C. in PBS. Unbound G2-2 was washed away and cells were transferred to tissue culture medium with 10% FCS and then either warmed to 37° C. to allow internalization or maintained at 4° C. The internalization process was stopped after 15, 30, 60 or 120 minutes by transferring the cells into ice-cold buffer with 0.1% […]. Cells were stained with APC-conjugated goat anti-human Fab (Jackson Immuno) and analyzed by FACS. The residual levels of cell surface G2-2 was calculated based on the mean fluorescence intensity (MFI).

B1: G2-4 (antibody, V domains shown)
VH: QVQLEESGGGLVQPGGSLRLSCATSGFTFTDYYMSWVRQPPGKALEWLGFIRNKAKGYTTEYSASVKGRFTISRDNSQSILYLQMNTLRAEDSATYYCARDPSTNYWYFDVWGAGTTVTVSS
VL: DIVLTQSPSSLAVSAGEKVTMTCKSSQSLLNSRTRKNYLAWYQQKPGQSPKLLIYWASTRESGVPDRFTGSGSGTDFTLTISSVQAEDLAVYYCKQSYNLYTFGGGTKLEIKR
binding result [1]: binds

B2: G2-1 (human IgG1 heavy chain and human Igk light chain constant regions) (antibody, V domains shown)
VH: EVQLLESGGGVVQPGRSLRLSCAASGFTFSSYAMSWVRQAPGKGLEWVSVISYDGSNKAYADSVKGRFTISRDNSKNTLYLQMNSLRAEDTAVYYCARGRSYYDSSGYLFDYWGQGTLVTVSS
VL: DIQMTQPHSVSESVGKTVIITCTGGGGSIDTNYVQWYQQRPGSAPVTLIYEDDQRPFGVPDRFSAAIDTSSSSASLTISGLTAEDEATYYCQSSHSTAVVFGGGTKVEIKR
notes: scFv clone from a human scFv library, cloned as human IgG1/kappa; also called G2-1-HRP (horse radish peroxidase labeled)
Kd [2]: 3.02 nM
koff [2]: 0.00198 s⁻¹
kon [2]: 635000 M⁻¹ s⁻¹

B3: G2-2opti (IgG2a) (antibody, V domains shown)
VH: QVQLVQSGGGVVQPGRSLRLSCAASGFTFSSYGMHWVRQAPGKGLEWVAVISYDGSNKYYADSVKGRFTISRDNSKNTLYLQMNSLRAEDTAVYYCAREGSAGMDVWGQGTTVTVSS
VL: QAVLTQPSSLSASPGASASLTCTLRSDISVGFHRIYWYQQKPGSPPQYLLRYKSDSDKQQGSGVPSRFSGSKDASANAGILLISGLQSDDEADYYCVIWHTSGVVFGGGTKLTVL
notes: 'a chimeric human/murine version with a murine CH2 and CH2'
binding result [3]: no binding (tested: 5.0 ug/ml)
binding result [4]: binds
binding result [5]: binds

B4: mG2-2 (G2-2 variable regions with murine IgG2a heavy chain and human Igk light chain constant regions) (antibody)
heavy: EVQLLQSGGGVVQPGRSLRLSCAASGFTFSSYGMSWVRQAPGKGLEWVAVISYDGSNKYYADSVKGRFTISRDNSKNTLYLQMNSLRAEDTAVYYCAREGSAGMDVWGQGTTVTVSSASTTAPSVYPLAPVCGDTTGSSVTLGCLVKGYFPEPVTLTWNSGSLSSGVHTFPAVLQSDLYTLSSSVTVTSSTWPSQSITCNVAHPASSTKVDKKIEPRGPTIKPCPPCKCPAPNLLGGPSVFIFPPKIKDVLMISLSPIVTCVVVDVSEDDPDVQISWFVNNVEVHTAQTQTHREDYNSTLRVVSALPIQHQDWMSGKEFKCKVNNKDLPAPIERTISKPKGSVRAPQVYVLPPPEEEMTKKQVTLTCMVTDFMPEDIYVEWTNNGKTELNYKNTEPVLDSDGSYFMYSKLRVEKKNWVERNSYSCSVVHEGLHNHHTTKSFSRTPGK
light: DIQMTQPSSLSASPGASASLTCTLRSDISVGFHRIYWYQQKPGSPPQYLLRYKSDSDKQQGSGVPSRFSGSKDASANAGILLISGLQSDDEADYYCVIWHTSGVVFGGGTKVEIKRTVAAPSVFIFPPSDEQLKSGTASVVCLLNNFYPREAKVQWKVDNALQSGNSQESVTEQDSKDSTYSLSSTLTLSKADYEKHKVYACEVTHQGLSSPVTKSFNRGEC
notes: also called murine G2-2
binding result [6]: binds
binding result [7]: binds

B5: G2-2 (human IgG1 heavy chain and human Igk light chain constant regions) (antibody)
heavy: not shown
light: DIQMTQPSSLSASPGASASLTCTLRSDISVGFHRIYWYQQKPGSPPQYLLRYKSDSDKQQGSGVPSRFSGSKDASANAGILLISGLQSDDEADYYCVIWHTSGVVFGGGTKVEIKRTVAAPSVFIFPPSDEQLKSGTASVVCLLNNFYPREAKVQWKVDNALQSGNSQESVTEQDSKDSTYSLSSTLTLSKADYEKHKVYACEVTHQGLSSPVTKSFNRGEC
notes: scFv clone from a human scFv library, cloned as human IgG1/kappa; also called G2-2-HRP (horse radish peroxidase labeled); anti-rGOLPH antibody G2-2
binding result [8]: binds
Kd [2]: 4.29 nM
koff [2]: 0.00111 s⁻¹
kon [2]: 260000 M⁻¹ s⁻¹

From US20210253678A1 (CUREAB, published 2021)
